Measured values reported in patent US7494767 (FUNCTIONAL GENETICS, dated 2009).

B1: GAL4 DNA-binding domain-p1-p6 fusion protein (other)
chain: MKLLSSIEQACDICRLKKLKCSKEKPKCAKCLKNNWECRYSPKTKRSPLTRAHLTEVESRLERLEQLFLLIFPREDLDMILKMDSLQDIKALLTGLFVQDNVNKDAVTDRLASVETDMPLTLRQHRISATSSSEESSNKGQRQLTVSGKIWPSYKGRPGNFLQSRPEPTAPPFLQSRPEPTAPPEESFRSGVETTTPPQKQEPIDKELYPLTSLRSLFGNDPSSQ
notes: also called pGBT9-p1p6; Gag^p6

Columns and labels:
[1] = biological target: T1, GAL4 activation domain-Tsg101 fragment from aa139 to the C-terminus (yeast; human, UniProt Q99816 139-390); test: yeast 2-hybrid
T1 construct: also called 139-C
T1 sequence: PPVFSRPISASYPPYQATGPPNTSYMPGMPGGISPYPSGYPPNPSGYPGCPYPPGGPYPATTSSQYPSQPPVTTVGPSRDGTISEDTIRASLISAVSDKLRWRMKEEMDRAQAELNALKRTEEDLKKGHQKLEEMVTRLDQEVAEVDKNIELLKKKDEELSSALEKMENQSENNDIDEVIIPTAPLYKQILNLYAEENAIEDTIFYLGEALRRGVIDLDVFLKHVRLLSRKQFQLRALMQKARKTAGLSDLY

[2] = biological target: T2, GAL4 activation domain-Tsg101 N-terminal 311-residue fragment (yeast; human, UniProt Q99816 1-311); test: yeast 2-hybrid
T2 construct: also called N-311
T2 sequence: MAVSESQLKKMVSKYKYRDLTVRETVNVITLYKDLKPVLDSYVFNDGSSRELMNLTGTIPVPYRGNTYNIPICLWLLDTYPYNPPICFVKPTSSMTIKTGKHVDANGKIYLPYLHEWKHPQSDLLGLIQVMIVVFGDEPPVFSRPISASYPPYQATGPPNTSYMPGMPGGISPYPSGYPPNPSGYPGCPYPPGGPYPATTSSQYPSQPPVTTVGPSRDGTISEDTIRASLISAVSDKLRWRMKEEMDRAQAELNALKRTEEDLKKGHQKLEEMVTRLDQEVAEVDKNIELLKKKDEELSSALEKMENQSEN

[3] = biological target: T3, GAL4 activation domain-Tsg101 fusion protein (wild-type human Tsg101) (yeast; human, UniProt Q99816 1-390); test: yeast 2-hybrid, LacZ reporter
T3 construct: also called hTsg101; product of the human tumor susceptibility gene Tsg101
T3 sequence: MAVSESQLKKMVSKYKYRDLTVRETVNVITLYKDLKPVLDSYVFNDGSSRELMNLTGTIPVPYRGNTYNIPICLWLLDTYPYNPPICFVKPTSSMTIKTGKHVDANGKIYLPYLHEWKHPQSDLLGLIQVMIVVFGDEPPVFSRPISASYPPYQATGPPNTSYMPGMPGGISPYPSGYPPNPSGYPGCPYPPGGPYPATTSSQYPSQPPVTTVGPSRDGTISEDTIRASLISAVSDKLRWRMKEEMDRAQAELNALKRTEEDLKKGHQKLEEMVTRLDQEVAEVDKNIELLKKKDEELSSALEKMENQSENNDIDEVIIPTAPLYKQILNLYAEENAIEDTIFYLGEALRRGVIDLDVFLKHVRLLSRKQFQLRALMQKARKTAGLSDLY

[4] = biological target: B1; test: yeast 2-hybrid, β-galactosidase; Tsg101 variant with p1-p6
[5] = biological target: T3, GAL4 activation domain-Tsg101 fusion …; test: yeast 2-hybrid, β-galactosidase; p1-p6 variant with Tsg101
[6] = biological target: B1; test: yeast 2-hybrid

B1
binding result [1]: no binding
binding result [2]: binds
binding result [3]: binds

B2: GAL4 activation domain-Tsg101 with Ala for 149Ser-Tyr150 (other)
chain: MAVSESQLKKMVSKYKYRDLTVRETVNVITLYKDLKPVLDSYVFNDGSSRELMNLTGTIPVPYRGNTYNIPICLWLLDTYPYNPPICFVKPTSSMTIKTGKHVDANGKIYLPYLHEWKHPQSDLLGLIQVMIVVFGDEPPVFSRPISAAAPPYQATGPPNTSYMPGMPGGISPYPSGYPPNPSGYPGCPYPPGGPYPATTSSQYPSQPPVTTVGPSRDGTISEDTIRASLISAVSDKLRWRMKEEMDRAQAELNALKRTEEDLKKGHQKLEEMVTRLDQEVAEVDKNIELLKKKDEELSSALEKMENQSENNDIDEVIIPTAPLYKQILNLYAEENAIEDTIFYLGEALRRGVIDLDVFLKHVRLLSRKQFQLRALMQKARKTAGLSDLY
notes: also called mutation of 149Ser-Tyr150
binding result [4]: binds

B3: GAL4 DNA-binding domain-p1-p6 K493R (other)
chain: MKLLSSIEQACDICRLKKLKCSKEKPKCAKCLKNNWECRYSPKTKRSPLTRAHLTEVESRLERLEQLFLLIFPREDLDMILKMDSLQDIKALLTGLFVQDNVNKDAVTDRLASVETDMPLTLRQHRISATSSSEESSNKGQRQLTVSGKIWPSYKGRPGNFLQSRPEPTAPPFLQSRPEPTAPPEESFRSGVETTTPPQKQEPIDRELYPLTSLRSLFGNDPSSQ
binding result [5]: binds

B4: GAL4 DNA-binding domain-p1-p6 K487,493R (other)
chain: MKLLSSIEQACDICRLKKLKCSKEKPKCAKCLKNNWECRYSPKTKRSPLTRAHLTEVESRLERLEQLFLLIFPREDLDMILKMDSLQDIKALLTGLFVQDNVNKDAVTDRLASVETDMPLTLRQHRISATSSSEESSNKGQRQLTVSGKIWPSYKGRPGNFLQSRPEPTAPPFLQSRPEPTAPPEESFRSGVETTTPPQRQEPIDRELYPLTSLRSLFGNDPSSQ
binding result [5]: binds

B5: GAL4 activation domain-Tsg101 N-terminal 155-residue fragment (other)
chain: MAVSESQLKKMVSKYKYRDLTVRETVNVITLYKDLKPVLDSYVFNDGSSRELMNLTGTIPVPYRGNTYNIPICLWLLDTYPYNPPICFVKPTSSMTIKTGKHVDANGKIYLPYLHEWKHPQSDLLGLIQVMIVVFGDEPPVFSRPISASYPPYQA
notes: also called N-155
binding result [6]: binds

B6: GAL4 activation domain-Tsg101 N-terminal 215-residue fragment (other)
chain: MAVSESQLKKMVSKYKYRDLTVRETVNVITLYKDLKPVLDSYVFNDGSSRELMNLTGTIPVPYRGNTYNIPICLWLLDTYPYNPPICFVKPTSSMTIKTGKHVDANGKIYLPYLHEWKHPQSDLLGLIQVMIVVFGDEPPVFSRPISASYPPYQATGPPNTSYMPGMPGGISPYPSGYPPNPSGYPGCPYPPGGPYPATTSSQYPSQPPVTTVGP
notes: also called N-215
binding result [6]: binds

B7: GAL4 activation domain-Tsg101 fragment 241-C (other)
chain: RMKEEMDRAQAELNALKRTEEDLKKGHQKLEEMVTRLDQEVAEVDKNIELLKKKDEELSSALEKMENQSENNDIDEVIIPTAPLYKQILNLYAEENAIEDTIFYLGEALRRGVIDLDVFLKHVRLLSRKQFQLRALMQKARKTAGLSDLY
binding result [6]: no binding

B8: GAL4 activation domain-Tsg101 fragment 311-C (other)
chain: NNDIDEVIIPTAPLYKQILNLYAEENAIEDTIFYLGEALRRGVIDLDVFLKHVRLLSRKQFQLRALMQKARKTAGLSDLY
binding result [6]: no binding
